# Measured values published in the supplement of paper PMC7877785.
# ± gives the uncertainty stated by the source.
# Assay: self-splicing fitness, log relative to wild type (ln ratio); higher = more splicing; Tetrahymena group I intron in knt gene, E. coli kanamycin selection, DiMSum; sequences stand for … in CUCUCU…GGAGGGAAAAGUUAUCAGGCAUGCACCUGGUAGCUAGUCUUUAAACCAAUAGAUUGCAUCGGUUUAAAAGGCAAGACCGUCAAAUUGCGGGAAAGGGGUCAACAGCCGUUCAGUACCAAGUCUCAGGGGAAACUUUGAGAUGGCCUUGCAAAGGGUAUGGUAAUAAGCUGACGGACAUGGUCCUAACCACGCAGCCAAGUCCUAAGUCAACAGAUCUUCUGUUGAUAUGGAUGCAGUUCACAGACUAAAUGUCGGUCGGGGAAGAUGUAUUCUUCUCAUAAGAUAUAGUCGGACCUCUCCUUAAUGGGAGCUAGCGGAUGAAGUGAUGCAACACUGGAGCCGCUGGGAACUAAUUUGUAUGCGAAAGUAUAUUGAUUAGUUUUGGAGUACUCGUGGUCG
# How it was run: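 The eight P1ex-region nucleotides of an intron in the knt kanamycin-resistance gene on pET-22b(+) were all randomised and the library put into E. coli BL21(DE3). Six replicate transformations were grown overnight at 37°C or 30°C on LB agar with or without 25 μg/mL kanamycin, together with 100 μg/mL carbenicillin, 50 μM IPTG and 0.2% rhamnose. Colonies were pooled and amplicon-sequenced on an Illumina HiSeq 2500. Fitness from DiMSum is the error-weighted combination of wild-type-normalised replicate fold changes, kanamycin over none.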
Sequence,self-splicing fitness (ln) (30 °C),self-splicing fitness (ln) (37 °C)
AUUGAGCAAUAUUACGUCGA,-3.47 ± 0.31,-1.18 ± 0.25
AUUGAGCAAUAUUACGUUCG,-1.65 ± 0.13,-1.14 ± 0.14
AUUGAGCAAUAUUACGUUCU,-2.53 ± 0.14,-1.22 ± 0.15
AUUUAGCAAUAUUACGAAAA,-1.99 ± 0.26,-1.01 ± 0.23
AUUUAGCAAUAUUACGAACU,0.198 ± 0.13,0.211 ± 0.14
AUUUAGCAAUAUUACGAAUU,-3.21 ± 0.35,-1.85 ± 0.38
AUUUAGCAAUAUUACGACAA,-1.36 ± 0.2,-0.936 ± 0.22
AUUUAGCAAUAUUACGACCC,-1.16 ± 0.28,-0.0521 ± 0.3
AUUUAGCAAUAUUACGAUUU,-0.123 ± 0.12,0.23 ± 0.13
AUUUAGCAAUAUUACGCAAG,-2.59 ± 0.32,-0.488 ± 0.14
AUUUAGCAAUAUUACGCACC,-1.01 ± 0.18,-0.21 ± 0.2
AUUUAGCAAUAUUACGCAUC,-3.58 ± 0.19,-3.27 ± 0.32
AUUUAGCAAUAUUACGCAUU,-1.7 ± 0.11,-0.617 ± 0.13
AUUUAGCAAUAUUACGCCUC,–,-0.949 ± 0.27
AUUUAGCAAUAUUACGCGAA,-3.01 ± 0.21,-0.549 ± 0.16
AUUUAGCAAUAUUACGCGCG,-1.28 ± 0.2,-0.257 ± 0.22
AUUUAGCAAUAUUACGCGUA,-1.36 ± 0.12,-1 ± 0.14
AUUUAGCAAUAUUACGCUAG,-0.961 ± 0.097,-0.937 ± 0.12
AUUUAGCAAUAUUACGCUAU,-3.64 ± 0.3,-0.748 ± 0.23
AUUUAGCAAUAUUACGCUUC,-2.33 ± 0.5,–
AUUUAGCAAUAUUACGGCUU,-0.173 ± 0.12,0.0373 ± 0.15
AUUUAGCAAUAUUACGGGAA,-2.24 ± 0.26,-1.84 ± 0.19
AUUUAGCAAUAUUACGGGAG,-2.97 ± 0.41,-0.342 ± 0.16
AUUUAGCAAUAUUACGGUAA,-1.59 ± 0.17,-1.54 ± 0.17

Sequence,self-splicing fitness (ln) (30 °C),self-splicing fitness (ln) (37 °C)
AUUUAGCAAUAUUACGGUAU,-1.51 ± 0.088,-0.753 ± 0.089
AUUUAGCAAUAUUACGGUCU,-0.911 ± 0.1,-0.391 ± 0.15
AUUUAGCAAUAUUACGUACC,-0.819 ± 0.45,-1.04 ± 0.31
AUUUAGCAAUAUUACGUCUA,-0.829 ± 0.15,0.0394 ± 0.15
AUUUAGCAAUAUUACGUGAA,-2.53 ± 0.14,-0.614 ± 0.12
AUUUAGCAAUAUUACGUUGG,-3.51 ± 0.2,-2.62 ± 0.22
AUUUAGCAAUAUUACGUUUA,-1.97 ± 0.19,-1.07 ± 0.21
CAAAAGCAAUAUUACGAAAU,-3.75 ± 0.17,-2.89 ± 0.23
CAAAAGCAAUAUUACGAAGA,-2.23 ± 0.28,-1.43 ± 0.17
CAAAAGCAAUAUUACGACCA,-1.95 ± 0.2,-1.48 ± 0.19
CAAAAGCAAUAUUACGACGA,-0.512 ± 0.09,-0.343 ± 0.094
CAAAAGCAAUAUUACGAUAA,-2.29 ± 0.1,-0.871 ± 0.099
CAAAAGCAAUAUUACGAUCA,-1.42 ± 0.12,-1.25 ± 0.12
CAAAAGCAAUAUUACGAUCU,-2.14 ± 0.078,-0.593 ± 0.09
CAAAAGCAAUAUUACGAUUA,-0.53 ± 0.084,-0.187 ± 0.087
CAAAAGCAAUAUUACGCACU,-1.57 ± 0.091,-0.654 ± 0.089
CAAAAGCAAUAUUACGCCCA,-1.69 ± 0.21,-0.538 ± 0.2
CAAAAGCAAUAUUACGCCGG,-0.401 ± 0.098,-0.104 ± 0.13
CAAAAGCAAUAUUACGCCUC,-3.57 ± 0.29,-1.76 ± 0.25
CAAAAGCAAUAUUACGCGGU,-3.58 ± 0.2,-2.46 ± 0.24
CAAAAGCAAUAUUACGCUAA,-3.66 ± 0.25,-2.1 ± 0.21
CAAAAGCAAUAUUACGCUAG,-3.12 ± 0.12,-2.26 ± 0.14
CAAAAGCAAUAUUACGGCAA,-1.96 ± 0.17,-0.93 ± 0.14
CAAAAGCAAUAUUACGGCAC,-2.9 ± 0.14,-2.09 ± 0.15

Sequence,self-splicing fitness (ln) (30 °C),self-splicing fitness (ln) (37 °C)
CAAAAGCAAUAUUACGGCAG,0.126 ± 0.077,-0.164 ± 0.089
CAAAAGCAAUAUUACGGCCU,-1.44 ± 0.14,-1.25 ± 0.12
CAAAAGCAAUAUUACGGCGG,-0.363 ± 0.061,-0.395 ± 0.079
CAAAAGCAAUAUUACGGCUA,-0.892 ± 0.088,-0.809 ± 0.083
CAAAAGCAAUAUUACGGUAA,-1.91 ± 0.12,-1.45 ± 0.15
CAAAAGCAAUAUUACGGUGU,-4.34 ± 0.22,-2.36 ± 0.19
CAAAAGCAAUAUUACGUACC,-2.56 ± 0.15,-1.33 ± 0.15
CAAAAGCAAUAUUACGUUAC,-3.12 ± 0.22,-2.33 ± 0.23
CAAAAGCAAUAUUACGUUAG,-1.57 ± 0.064,-0.632 ± 0.084
CAAAAGCAAUAUUACGUUCG,-0.43 ± 0.051,0.246 ± 0.066
CAAAAGCAAUAUUACGUUGG,-2.47 ± 0.088,-1.48 ± 0.1
CAACAGCAAUAUUACGAAAC,-3.87 ± 0.2,-2.01 ± 0.17
CAACAGCAAUAUUACGAAAG,-0.908 ± 0.053,0.316 ± 0.079
CAACAGCAAUAUUACGAAUG,-1.04 ± 0.058,-0.229 ± 0.074
CAACAGCAAUAUUACGACAC,-2.93 ± 0.18,-1.79 ± 0.18
CAACAGCAAUAUUACGACCU,-1.18 ± 0.12,-0.29 ± 0.12
CAACAGCAAUAUUACGACUA,-1.35 ± 0.1,-0.653 ± 0.092
CAACAGCAAUAUUACGAGGA,-3.65 ± 0.25,-0.828 ± 0.1
CAACAGCAAUAUUACGAUCA,-1.6 ± 0.097,-1.33 ± 0.12
CAACAGCAAUAUUACGCAAU,-2.87 ± 0.16,-1.87 ± 0.15
CAACAGCAAUAUUACGCGAU,-5.11 ± 0.45,-2.63 ± 0.23
CAACAGCAAUAUUACGCUCA,-1.15 ± 0.096,-1.4 ± 0.12
CAACAGCAAUAUUACGGAAU,-2.96 ± 0.14,-3.05 ± 0.2
CAACAGCAAUAUUACGGAGG,-1.33 ± 0.048,-0.382 ± 0.065

Sequence,self-splicing fitness (ln) (30 °C),self-splicing fitness (ln) (37 °C)
CAACAGCAAUAUUACGGAUA,-3.38 ± 0.17,-2.14 ± 0.15
CAACAGCAAUAUUACGGCAA,-1.45 ± 0.13,-1.28 ± 0.12
CAACAGCAAUAUUACGGUGA,-1.58 ± 0.071,-0.727 ± 0.084
CAACAGCAAUAUUACGGUGU,-3.34 ± 0.12,-2.55 ± 0.14
CAACAGCAAUAUUACGGUUU,-0.644 ± 0.045,0.183 ± 0.056
CAACAGCAAUAUUACGUACA,-2.28 ± 0.11,-1.12 ± 0.093
CAACAGCAAUAUUACGUCCC,-1.72 ± 0.14,-1.46 ± 0.2
CAACAGCAAUAUUACGUGUC,-2.82 ± 0.13,-2.04 ± 0.14
CAAGAGCAAUAUUACGAAGU,-3.86 ± 0.34,-2.3 ± 0.33
CAAGAGCAAUAUUACGAAUU,-3.25 ± 0.17,-2.64 ± 0.32
CAAGAGCAAUAUUACGACCG,-0.953 ± 0.13,-0.89 ± 0.14
CAAGAGCAAUAUUACGACGA,-3.01 ± 0.2,-1.77 ± 0.23
CAAGAGCAAUAUUACGACUU,-2.96 ± 0.12,-1.46 ± 0.12
CAAGAGCAAUAUUACGAUGA,-3.62 ± 0.33,-0.971 ± 0.17
CAAGAGCAAUAUUACGCAAA,-2.46 ± 0.24,-2.56 ± 0.41
CAAGAGCAAUAUUACGCAAG,-3.06 ± 0.17,-1.99 ± 0.17
CAAGAGCAAUAUUACGCAAU,-3.31 ± 0.44,-1.52 ± 0.22
CAAGAGCAAUAUUACGCACA,-2.72 ± 0.36,-1.53 ± 0.43
CAAGAGCAAUAUUACGCCUG,-1.47 ± 0.21,-2.17 ± 0.32
CAAGAGCAAUAUUACGCGCC,-3.44 ± 0.37,-1.74 ± 0.42
CAAGAGCAAUAUUACGCGUC,-2.16 ± 0.17,-2.23 ± 0.23
CAAGAGCAAUAUUACGCGUG,-4.13 ± 0.3,-1.6 ± 0.16
CAAGAGCAAUAUUACGCUUU,-3.3 ± 0.19,-2.58 ± 0.18
